Earlier results as cited in article PMC10502159.
pKd: −log10 of the molar value. Values belong to the substance of their own block, whether it stands above or below them.

Assays:
EGFR ECD (Homo sapiens) [1] = biological target: EGFR ECD (Homo sapiens) (UniProt P00533); assay: SPR (OpenSPR)
EGFR ECD (Homo sapiens) [2] = biological target: EGFR ECD (Homo sapiens) (UniProt P00533); assay: SPR (Biacore)
[3] = biological target: TLR4 1-631 (Homo sapiens) (UniProt O00206); assay: SPR
TLR4 (Homo sapiens) = TLR4 (Homo sapiens) (UniProt O00206); assay: OpenSPR
[4] = biological target: pCTS-L (procathepsin L) (Homo sapiens) (UniProt P07711); assay: OpenSPR
Sequence of pCTS-L (procathepsin L) (Homo sapiens) (P07711 18-333): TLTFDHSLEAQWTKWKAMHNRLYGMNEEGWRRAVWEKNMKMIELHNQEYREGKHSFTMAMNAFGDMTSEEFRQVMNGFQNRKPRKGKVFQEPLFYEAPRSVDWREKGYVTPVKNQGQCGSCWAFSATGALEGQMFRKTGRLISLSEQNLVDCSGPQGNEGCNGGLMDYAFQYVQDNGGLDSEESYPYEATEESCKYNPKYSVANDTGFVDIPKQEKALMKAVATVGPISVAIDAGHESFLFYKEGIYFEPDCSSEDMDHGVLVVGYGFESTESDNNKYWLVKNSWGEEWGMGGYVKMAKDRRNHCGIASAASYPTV

Sequence of dermcidin (P81605 20-110): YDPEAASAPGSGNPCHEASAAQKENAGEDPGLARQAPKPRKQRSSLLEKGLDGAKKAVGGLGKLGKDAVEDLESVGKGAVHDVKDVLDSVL
Sequence of procathepsin L (pCTS-L) 17-333 (P07711 17-333): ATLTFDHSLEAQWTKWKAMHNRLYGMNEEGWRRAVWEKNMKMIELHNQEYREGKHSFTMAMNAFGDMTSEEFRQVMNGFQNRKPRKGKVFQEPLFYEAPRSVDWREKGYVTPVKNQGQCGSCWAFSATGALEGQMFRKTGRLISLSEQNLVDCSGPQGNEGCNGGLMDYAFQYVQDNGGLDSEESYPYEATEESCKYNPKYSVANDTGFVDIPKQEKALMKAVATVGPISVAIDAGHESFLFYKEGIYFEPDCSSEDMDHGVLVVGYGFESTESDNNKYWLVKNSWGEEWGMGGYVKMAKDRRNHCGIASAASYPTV
Sequence of TLR4 1-631 (Homo sapiens) (O00206 1-631): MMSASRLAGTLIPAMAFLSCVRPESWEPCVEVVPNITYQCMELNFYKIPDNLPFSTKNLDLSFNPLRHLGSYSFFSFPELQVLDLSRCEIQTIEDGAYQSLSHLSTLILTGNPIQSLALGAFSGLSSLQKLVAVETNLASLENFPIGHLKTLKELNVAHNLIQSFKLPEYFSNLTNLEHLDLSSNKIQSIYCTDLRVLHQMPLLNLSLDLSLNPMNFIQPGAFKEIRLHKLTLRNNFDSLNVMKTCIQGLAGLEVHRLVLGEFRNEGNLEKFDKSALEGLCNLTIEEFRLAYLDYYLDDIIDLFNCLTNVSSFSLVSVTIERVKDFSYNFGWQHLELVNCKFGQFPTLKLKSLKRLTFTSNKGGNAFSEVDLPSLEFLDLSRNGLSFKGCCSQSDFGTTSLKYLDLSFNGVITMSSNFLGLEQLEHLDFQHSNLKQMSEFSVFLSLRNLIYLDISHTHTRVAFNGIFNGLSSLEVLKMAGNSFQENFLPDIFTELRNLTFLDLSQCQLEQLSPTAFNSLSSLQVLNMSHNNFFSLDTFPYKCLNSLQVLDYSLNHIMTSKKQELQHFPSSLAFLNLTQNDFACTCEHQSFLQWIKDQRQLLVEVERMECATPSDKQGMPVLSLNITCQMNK
Sequence of pCTS-L (procathepsin L) (P07711 18-333): as the sequence (P07711 18-333) above
Sequence of TLR4 (O00206 24-631): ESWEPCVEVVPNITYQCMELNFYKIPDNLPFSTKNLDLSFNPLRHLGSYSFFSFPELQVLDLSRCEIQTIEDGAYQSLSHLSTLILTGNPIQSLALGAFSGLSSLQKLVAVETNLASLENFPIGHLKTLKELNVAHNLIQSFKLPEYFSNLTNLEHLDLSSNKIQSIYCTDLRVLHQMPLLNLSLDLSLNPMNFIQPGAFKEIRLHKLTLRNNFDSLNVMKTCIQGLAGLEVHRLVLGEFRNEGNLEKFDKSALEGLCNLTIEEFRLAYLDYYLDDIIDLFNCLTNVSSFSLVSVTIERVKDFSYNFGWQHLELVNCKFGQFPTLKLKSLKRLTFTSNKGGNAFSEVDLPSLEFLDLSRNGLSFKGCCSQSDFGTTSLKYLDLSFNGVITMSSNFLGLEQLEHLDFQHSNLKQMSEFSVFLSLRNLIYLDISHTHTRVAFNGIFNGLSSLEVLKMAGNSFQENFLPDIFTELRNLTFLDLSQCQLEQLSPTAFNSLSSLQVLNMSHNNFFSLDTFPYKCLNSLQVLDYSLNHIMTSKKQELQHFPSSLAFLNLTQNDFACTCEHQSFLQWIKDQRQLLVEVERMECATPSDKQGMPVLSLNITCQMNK
Sequence of TLR4 (Homo sapiens) (O00206 24-631): as above

pKd (EGFR ECD (Homo sapiens) [1]): 7.24
pKd (EGFR ECD (Homo sapiens) [2]): 7.23
Substance: dermcidin (from UniProt P81605)

pKd [3]: 7.19
Substance: procathepsin L (pCTS-L) 17-333 (from UniProt P07711)

pKd (TLR4 (Homo sapiens)): 7.69
Substance: pCTS-L (procathepsin L) (from UniProt P07711)

pKd [4]: 7.19
Substance: TLR4 (from UniProt O00206)
